Among the data in the RNAGym collection of RNA variant scans (doi:10.7554/elife.80360) are self-cleavage values, retold here.

The labels stand for the following.
B1: HDV Ribozyme (parent)
chain: GGCCGGCAUGGUCCCAGCCUCCUCGCUGGCGCCGGCUGGGCAACAUUCCGAGGGGACCGUCCCCUCGGUAAUGGCGAAUGGGACCCA

The variants in the series derive from B1. The series is described as follows: self-cleavage, relative activity (ratio to wild type); higher = more cleavage; co-transcriptional.
Take C26U C62A: the self-cleavage was 1.08.

With U12C A77U, the self-cleavage was 0.289. Next, C7A A83U: 0.0426; C32G: 0.103. For the variant C18A U27G, the self-cleavage worked out at 0.115.

On to G31A A77G, for which the self-cleavage came out at 0.339. C7G G68A: the self-cleavage was 0.0594. For C14G C61A the value was 0.88; for G2A U12A, 0.

As for C24U C61G, the self-cleavage was determined as 0.745. Next, A51U G67C: 0.78; U9C A56C: 1.06; G2C U20G: 0. For U60A G73U the value was 0.475; for G6U G74U, 0.151. Regarding G11U G28U, the self-cleavage is 0.0396. Next, C62U A70C: 0.734. U37A G55A: the self-cleavage is 0.283. As for G10U G55C, the self-cleavage amounted to 0.831. Next, C30G A43G: 0; C58A C62A: 1.26; G55A C58G: 0.941. On to C30G U72A, for which the self-cleavage turned out to be 0.0536. For G50A A77U, the self-cleavage turned out to be 0.721. Next, U27A C66U: 0.789. For C14A C75U, the self-cleavage worked out at 0. Next, G11A C49A: 0.363. For C61A U65C the value was 0.909; for G5C C48U, 0.308; for C57A C61A, 1.05. For U79A A87G, the self-cleavage amounted to 0.752.

For G17C C32U, the self-cleavage is 0. As to A43C G67U, the self-cleavage was 0.299. Next, C30A U65G: 0.441; C30A U65A: 0.341.

Regarding G5U U27A, the self-cleavage was found to be 0.443. G74U G82A: the self-cleavage was 0.217. For A8U G11U the value was 0.201.

For G34A G76C, the self-cleavage came to 0.217.

Regarding C48G A56C, the self-cleavage stood at 0.875. In the case of U60G C86G, the self-cleavage was found to be 1.14. Take G35C G53A: the self-cleavage was determined as 0.172.

U9G U72A: the self-cleavage turned out to be 0.633. Next, G17A U20C: 0.268; G6U G35C: 0.0437; C22U G53C: 0.63. For G25U U65G the value was 0.269; for C13A U65G, 0.208.

G52U A56G: the self-cleavage is 0.816. For U27A C44G the value was 0.289; for C3G A43G, 0.125; for U27C G74C, 0.383.

With G53A U65A, the self-cleavage was 0.884. Next, C13G U65A: 0.101. For U46C G50C the value was 0.932. Next, C21U A78U: 0.148; G25U G59A: 0.104. Consider G2A A51G, for which the self-cleavage was determined as 0.141. Next, U27G A71U: 0.598; A77C C84U: 0.326; G5A G80A: 0.143. For G5A C48G, the self-cleavage was 0.101.

In the case of U60C G73A, the self-cleavage amounted to 0.815. As to C41A G76A, the self-cleavage turned out to be 0.845. For U60C A87U the value was 0.921. For the variant U60C A87G, the self-cleavage is 1.03. For the variant C62A C63G, the self-cleavage was determined as 0.7. As for U9C U23G, the self-cleavage was 0.831.

Regarding C3A C75G, the self-cleavage is 0.0308. Regarding A51G G55U, the self-cleavage worked out at 1.06. For A45G U46A the value was 0.806; for A56G U79G, 0.65. As for A16C G52A, the self-cleavage is 0.751. For G1U G5U the value was 0.402. Next, G6C U37A: 0.0791. Consider C4A U47G, for which the self-cleavage amounted to 0.201.

Turning to C26G G39A, the self-cleavage is 0.18.

Regarding C58G U79C, the self-cleavage was found to be 0.366. As to C21G A43C, the self-cleavage amounted to 0. Next, U20C U37A: 0.107; G2A C33A: 0.0548; G1A C30A: 0.0875. Next, G28A C61G: 0.133; C4U C7U: 0.457; C41U G73C: 0.507. For the variant C14G G59U, the self-cleavage was determined as 0.745. Next, C32U C63G: 0.721. As to U47C G74C, the self-cleavage was determined as 0.256. In the case of A45C C49A, the self-cleavage came to 0.72. Next, C14A A16G: 0.776. For C44G C61U, the self-cleavage was 0.378. For C22U A42G, the self-cleavage turned out to be 0.0755. For A8U A16G the value was 0.684; for G29A C84G, 0.102. For C7A G59A the value was 0.753; for A16U A42C, 0.262; for G10U A71G, 0.799. As to G6U A87G, the self-cleavage is 0.377. U27A U60A: the self-cleavage was found to be 0.918. Next, C36G U37G: 0.213. Next, G6C G38C: 0; C26G G81U: 0.567.

Consider C15U G39A, for which the self-cleavage was found to be 0.151.

As to U23C G53U, the self-cleavage was 0.938. For C58G A87U the value was 0.897; for C57G A87U, 0.861.

U20G G25U: the self-cleavage was 0.166. Regarding U79G C86A, the self-cleavage is 0.675.

For A8U C63U, the self-cleavage turned out to be 0.862. For C48A G74U the value was 0.38; for U46A G67U, 0.789; for G6A G80C, 0.0941. Consider A51U C58A, for which the self-cleavage turned out to be 1.04. In the case of A45U G82C, the self-cleavage came out at 0.0898. For U46G U47G the value was 0.262; for U27C C58G, 0.7. On to C32G G38A, for which the self-cleavage amounted to 0.0831. On to C21U A56U, for which the self-cleavage stood at 0.3.

C21U A56G: the self-cleavage turned out to be 0.315.

In the case of U9C C19A, the self-cleavage is 0.175.

With C7A G73C, the self-cleavage came out at 0.106.

Take C24G A83G: the self-cleavage turned out to be 0.153. For C41A G55C the value was 0.831; for A16G A77C, 0; for G6U, 0.63.

Turning to C57G C58U, the self-cleavage is 1.07. In the case of U60G C64G, the self-cleavage came out at 0.919.

G76C C85U: the self-cleavage was 1.14. On to G10C U23C, for which the self-cleavage came to 0.95. Next, U23A A83C: 0.508; G25A C66A: 0.287. For U12A C86U, the self-cleavage stood at 0.178.

Regarding G53U A83G, the self-cleavage worked out at 0.739.

As for G1A C86G, the self-cleavage was 0.185. For the variant C62G C84A, the self-cleavage was found to be 0.712. Consider G6U G25C, for which the self-cleavage stood at 0.0426. Next, G2C U37G: 0; G1A U60C: 0.166; G40C U69A: 0.119. As to C58G G80C, the self-cleavage was 0.147. G55A C62G: the self-cleavage was 0.686. Next, A43G C63G: 0.604; U23G G55C: 0.748; G34C G40C: 0.113. For the variant A16G C21U, the self-cleavage was 0.0615. For G29U G53A the value was 0.0432; for C49A A56G, 1.11; for C14G G35C, 0. For G10U G73C, the self-cleavage came to 0.0831. For C64U C66U, the self-cleavage worked out at 1.01. Next, C41U A78G: 0.724; U47G U72G: 0.623; U9G C84A: 0.554. For A56G C64G the value was 0.791.

On to G38C C41A, for which the self-cleavage was 0.612.

For the variant C26G G74A, the self-cleavage turned out to be 0.441. For C24A C75G the value was 0.0898; for A8U C86U, 0.997.

Take A45G C48A: the self-cleavage amounted to 1.27. For U47G C66A the value was 0.969; for G2U G11A, 0.0304; for G54C G73U, 0.205. Regarding C30U A87G, the self-cleavage was found to be 0.699. Next, C19U C84A: 0.0554.

In the case of C63U G73U, the self-cleavage amounted to 0.409. For C44A C75U the value was 0.218; for G11U C75U, 0.0422.
